From US20230416330A1, “Optimized GIP Peptide Analogues” (Antag Therapeutics ApS, priority 2019, published 2023)
Starred links: 1 amine or outer side, 2 acyl side, 3 side chain; linkers in the order of their positions; H or OH if unused. Non-standard residues stand in square brackets, D forms with d. No end group written: not given here. *: point of attachment. C16 diacid = O=C(O)CCCCCCCCCCCCCCC(=O)*; Glutaryl = O=C(CCCC(=O)[*:2])[*:1]; Nle = CCCC[C@H](N)C(=O)O; Aib = CC(C)(N)C(=O)O

T1: human GIP receptor (human, UniProt P48546 22-466)
T1 sequence (looked up): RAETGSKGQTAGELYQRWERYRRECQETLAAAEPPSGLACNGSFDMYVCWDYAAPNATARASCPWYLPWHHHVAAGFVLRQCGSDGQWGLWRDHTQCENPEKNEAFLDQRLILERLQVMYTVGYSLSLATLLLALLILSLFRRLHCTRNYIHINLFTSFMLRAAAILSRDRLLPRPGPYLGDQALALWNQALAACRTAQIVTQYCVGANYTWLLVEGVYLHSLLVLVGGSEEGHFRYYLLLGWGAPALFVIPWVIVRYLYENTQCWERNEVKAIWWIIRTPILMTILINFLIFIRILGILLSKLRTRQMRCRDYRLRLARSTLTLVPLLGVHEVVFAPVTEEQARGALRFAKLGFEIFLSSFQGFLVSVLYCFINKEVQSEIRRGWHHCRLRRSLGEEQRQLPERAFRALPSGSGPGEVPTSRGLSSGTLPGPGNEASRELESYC


Target: T1, human GIP receptor
Test: cell-based or functional assay

Row | Binder | cAMP antagonism % inhib (CisBio assay) | cAMP antagonism nM (IC50, CisBio assay) | cAMP antagonism pIC50 (CisBio assay)
1 | EGTFISEYSI[Aib][Nle]EKIK(C16 diacid)QQEFVEWLLAQKPSSGAPPPS-OH (N-terminus assumed; SMILES CCCC[C@H](NC(=O)C(C)(C)NC(=O)[C@@H](NC(=O)[C@H](CO)NC(=O)[C@H](Cc1ccc(O)cc1)NC(=O)[C@H](CCC(=O)O)NC(=O)[C@H](CO)NC(=O)[C@@H](NC(=O)[C@H](Cc1ccccc1)NC(=O)[C@@H](NC(=O)CNC(=O)[C@@H](N)CCC(=O)O)[C@@H](C)O)[C@@H](C)CC)[C@@H](C)CC)C(=O)N[C@@H](CCC(=O)O)C(=O)N[C@@H](CCCCN)C(=O)N[C@H](C(=O)N[C@@H](CCCCNC(=O)CCCCCCCCCCCCCCC(=O)O)C(=O)N[C@@H](CCC(N)=O)C(=O)N[C@@H](CCC(N)=O)C(=O)N[C@@H](CCC(=O)O)C(=O)N[C@@H](Cc1ccccc1)C(=O)N[C@H](C(=O)N[C@@H](CCC(=O)O)C(=O)N[C@@H](Cc1c[nH]c2ccccc12)C(=O)N[C@@H](CC(C)C)C(=O)N[C@@H](CC(C)C)C(=O)N[C@@H](C)C(=O)N[C@@H](CCC(N)=O)C(=O)N[C@@H](CCCCN)C(=O)N1CCC[C@H]1C(=O)N[C@@H](CO)C(=O)N[C@@H](CO)C(=O)NCC(=O)N[C@@H](C)C(=O)N1CCC[C@H]1C(=O)N1CCC[C@H]1C(=O)N1CCC[C@H]1C(=O)N[C@@H](CO)C(=O)O)C(C)C)[C@@H](C)CC) [AT674] | 93% | 0.447 nM | 9.4
2 | Glutaryl-GTFISDYSIAMDKIK(C16 diacid)QQDFVNWLLAQKPSSGAPPPS-OH (SMILES CC[C@H](C)[C@H](NC(=O)[C@H](CO)NC(=O)[C@H](Cc1ccc(O)cc1)NC(=O)[C@H](CC(=O)O)NC(=O)[C@H](CO)NC(=O)[C@@H](NC(=O)[C@H](Cc1ccccc1)NC(=O)[C@@H](NC(=O)CNC(=O)CCCC(=O)O)[C@@H](C)O)[C@@H](C)CC)C(=O)N[C@@H](C)C(=O)N[C@@H](CCSC)C(=O)N[C@@H](CC(=O)O)C(=O)N[C@@H](CCCCN)C(=O)N[C@H](C(=O)N[C@@H](CCCCNC(=O)CCCCCCCCCCCCCCC(=O)O)C(=O)N[C@@H](CCC(N)=O)C(=O)N[C@@H](CCC(N)=O)C(=O)N[C@@H](CC(=O)O)C(=O)N[C@@H](Cc1ccccc1)C(=O)N[C@H](C(=O)N[C@@H](CC(N)=O)C(=O)N[C@@H](Cc1c[nH]c2ccccc12)C(=O)N[C@@H](CC(C)C)C(=O)N[C@@H](CC(C)C)C(=O)N[C@@H](C)C(=O)N[C@@H](CCC(N)=O)C(=O)N[C@@H](CCCCN)C(=O)N1CCC[C@H]1C(=O)N[C@@H](CO)C(=O)N[C@@H](CO)C(=O)NCC(=O)N[C@@H](C)C(=O)N1CCC[C@H]1C(=O)N1CCC[C@H]1C(=O)N1CCC[C@H]1C(=O)N[C@@H](CO)C(=O)O)C(C)C)[C@@H](C)CC) [AT677] | 93% | 0.447 nM | 9.4
